Assay results: PMC6349032

Target: GD-FXaS195A (Gla-domainless factor Xa, catalytically inactive) (UniProt P00742;P00742 85-179;235-488, S419A)
Test: X-ray crystallography

Sequence of GD-FXaS195A (Gla-domainless factor Xa, catalytically inactive) (P00742 85-179, chain 1 of 2): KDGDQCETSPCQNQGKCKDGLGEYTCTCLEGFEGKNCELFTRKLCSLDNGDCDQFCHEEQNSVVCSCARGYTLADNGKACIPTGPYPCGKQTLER
Sequence of GD-FXaS195A (Gla-domainless factor Xa, catalytically inactive) (P00742 235-488 S419A, chain 2 of 2): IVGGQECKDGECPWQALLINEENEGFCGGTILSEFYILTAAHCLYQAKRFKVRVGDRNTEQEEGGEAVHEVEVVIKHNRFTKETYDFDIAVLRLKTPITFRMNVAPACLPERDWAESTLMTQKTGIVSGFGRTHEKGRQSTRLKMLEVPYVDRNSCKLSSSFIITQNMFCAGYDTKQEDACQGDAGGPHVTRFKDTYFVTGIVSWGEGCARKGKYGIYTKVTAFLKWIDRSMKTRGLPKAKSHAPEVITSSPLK

GAGAGCCCCAGCGAGAUAAUACUUGGCCCCGCUCUU (structured_RNA, all C are 2'-fluoro-C and all U are 2'-fluoro-U; purines A/G as ribonucleotides) [11F7t]
binding result: binds
